From article PMC9943670, “The homeodomain of Oct4 is a dimeric binder of methylated CpG elements”

Columns and labels:
[1] = molecular target: T1, Brn2 POU (mouse, UniProt P31360); assay: EMSA (single-tube dual color); Cy5-MORE with FAM-CpGpal; preferred, dimer; EMSA buffer composition not given; 1 h at RT; gels in 1x TG, 200 V, 4 C; probes annealed in 20 mM Tris-HCl pH 8.0, 50 mM MgCl2, 50 mM KCl; protein stock 10 mM HEPES pH 7.0, 100 mM NaCl, 10% glycerol, 0.5 mM TCEP; settings: protein: recombinant; tags: tag cleaved by TEV (leaves G); label: 5' Cy5 on one strand; blunt; self-complementary strand, 2 copies
T1 sequence: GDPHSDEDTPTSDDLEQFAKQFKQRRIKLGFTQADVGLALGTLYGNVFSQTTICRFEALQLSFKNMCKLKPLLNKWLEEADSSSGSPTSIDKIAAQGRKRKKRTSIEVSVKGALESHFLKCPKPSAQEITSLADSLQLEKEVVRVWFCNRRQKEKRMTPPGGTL

[2] = molecular target: T2, Oct4 POUHD (mouse, UniProt P20263); assay: EMSA; 50 nM DNA; high affinity, homodimer also forms; EMSA buffer composition not given; 1 h at RT; gels in 1x TG, 200 V, 4 C; probes annealed in 20 mM Tris-HCl pH 8.0, 50 mM MgCl2, 50 mM KCl; protein stock 10 mM HEPES pH 7.0, 100 mM NaCl, 10% glycerol, 0.5 mM TCEP; settings: protein: recombinant; tags: tag cleaved by TEV (leaves G); chain copies: 2; label: 5' Cy5 on forward strand; blunt
T2 sequence (P20263 other isoform, or with tags, fused parts or gaps): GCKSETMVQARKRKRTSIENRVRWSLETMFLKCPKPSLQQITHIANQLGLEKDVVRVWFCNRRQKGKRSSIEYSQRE

[3] = molecular target: T3, Brn2 POUHD (mouse, UniProt P31360); assay: EMSA; 50 nM DNA; high affinity, no dimer detectable; EMSA buffer composition not given; 1 h at RT; gels in 1x TG, 200 V, 4 C; probes annealed in 20 mM Tris-HCl pH 8.0, 50 mM MgCl2, 50 mM KCl; protein stock 10 mM HEPES pH 7.0, 100 mM NaCl, 10% glycerol, 0.5 mM TCEP; settings: protein: recombinant; tags: tag cleaved by TEV (leaves G); label: 5' Cy5 on forward strand; blunt
T3 sequence: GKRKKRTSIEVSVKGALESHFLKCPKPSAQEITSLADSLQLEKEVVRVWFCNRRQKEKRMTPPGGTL

[4] = molecular target: T4, Oct4 POU (mouse, UniProt P20263); assay: EMSA; 1 nM DNA, 1-500 nM protein; nanomolar Kd, value only in figure; monomer; EMSA buffer composition not given; 1 h at RT; gels in 1x TG, 200 V, 4 C; probes annealed in 20 mM Tris-HCl pH 8.0, 50 mM MgCl2, 50 mM KCl; protein stock 10 mM HEPES pH 7.0, 100 mM NaCl, 10% glycerol, 0.5 mM TCEP; settings: protein: recombinant; Methods: TEV-cleaved tag; label: 5' Cy5 on forward strand; blunt
T4 sequence (P20263 other isoform, or with tags, fused parts or gaps): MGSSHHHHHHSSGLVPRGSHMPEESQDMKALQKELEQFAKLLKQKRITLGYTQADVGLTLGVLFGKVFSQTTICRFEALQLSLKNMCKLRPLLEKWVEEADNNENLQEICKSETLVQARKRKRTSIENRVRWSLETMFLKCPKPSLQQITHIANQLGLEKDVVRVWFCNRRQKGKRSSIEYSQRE

[5] = molecular target: T5, Brn2 POUS linker (mouse, UniProt P31360); assay: EMSA; 50 nM DNA; EMSA buffer composition not given; 1 h at RT; gels in 1x TG, 200 V, 4 C; probes annealed in 20 mM Tris-HCl pH 8.0, 50 mM MgCl2, 50 mM KCl; protein stock 10 mM HEPES pH 7.0, 100 mM NaCl, 10% glycerol, 0.5 mM TCEP; settings: protein: recombinant; tags: tag cleaved by TEV (leaves G); label: 5' Cy5 on forward strand; blunt
T5 sequence: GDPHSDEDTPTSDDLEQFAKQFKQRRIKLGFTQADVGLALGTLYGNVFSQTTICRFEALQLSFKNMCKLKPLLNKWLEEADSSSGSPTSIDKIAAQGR

[6] = molecular target: T1, Brn2 POU; assay: EMSA; 1 nM DNA, 0.4-100 nM protein; nanomolar Kd, value only in figure; monomer; EMSA buffer composition not given; 1 h at RT; gels in 1x TG, 200 V, 4 C; probes annealed in 20 mM Tris-HCl pH 8.0, 50 mM MgCl2, 50 mM KCl; protein stock 10 mM HEPES pH 7.0, 100 mM NaCl, 10% glycerol, 0.5 mM TCEP; settings: protein: recombinant; tags: tag cleaved by TEV (leaves G); label: 5' Cy5 on forward strand; blunt
[7] = molecular target: T4, Oct4 POU; assay: EMSA; 50 nM DNA; homodimer, 5hmC no effect; EMSA buffer composition not given; 1 h at RT; gels in 1x TG, 200 V, 4 C; probes annealed in 20 mM Tris-HCl pH 8.0, 50 mM MgCl2, 50 mM KCl; protein stock 10 mM HEPES pH 7.0, 100 mM NaCl, 10% glycerol, 0.5 mM TCEP; settings: protein: recombinant; Methods: TEV-cleaved tag; label: 5' Cy5 on forward strand; blunt
[8] = molecular target: T2, Oct4 POUHD; assay: EMSA; 50 nM DNA; homodimer more efficient than full POU; EMSA buffer composition not given; 1 h at RT; gels in 1x TG, 200 V, 4 C; probes annealed in 20 mM Tris-HCl pH 8.0, 50 mM MgCl2, 50 mM KCl; protein stock 10 mM HEPES pH 7.0, 100 mM NaCl, 10% glycerol, 0.5 mM TCEP; settings: protein: recombinant; tags: tag cleaved by TEV (leaves G); chain copies: 2; label: 5' Cy5 or FAM on forward strand; blunt
[9] = molecular target: T4, Oct4 POU; assay: EMSA (single-tube dual color); FAM-CpGpal with Cy5-MORE; dimerizes more effectively on CpGpal than Brn2 does; EMSA buffer composition not given; 1 h at RT; gels in 1x TG, 200 V, 4 C; probes annealed in 20 mM Tris-HCl pH 8.0, 50 mM MgCl2, 50 mM KCl; protein stock 10 mM HEPES pH 7.0, 100 mM NaCl, 10% glycerol, 0.5 mM TCEP; settings: protein: recombinant; Methods: TEV-cleaved tag; label: 5' Cy5 or FAM on forward strand; blunt
[10] = molecular target: T3, Brn2 POUHD; assay: EMSA; 50 nM DNA; dimer with strongly reduced cooperativity; EMSA buffer composition not given; 1 h at RT; gels in 1x TG, 200 V, 4 C; probes annealed in 20 mM Tris-HCl pH 8.0, 50 mM MgCl2, 50 mM KCl; protein stock 10 mM HEPES pH 7.0, 100 mM NaCl, 10% glycerol, 0.5 mM TCEP; settings: protein: recombinant, tags: tag cleaved by TEV (leaves G), blunt
[11] = molecular target: T1, Brn2 POU; assay: X-ray crystallography; 1.89 A; homodimer; 0.2 M MgCl2, pH 5.0; EMSA buffer composition not given; 1 h at RT; gels in 1x TG, 200 V, 4 C; probes annealed in 20 mM Tris-HCl pH 8.0, 50 mM MgCl2, 50 mM KCl; protein stock 10 mM HEPES pH 7.0, 100 mM NaCl, 10% glycerol, 0.5 mM TCEP; settings: protein: recombinant; tags: tag cleaved by TEV (leaves G); blunt; self-complementary strand, 2 copies
[12] = molecular target: T4, Oct4 POU; assay: EMSA; 50 nM DNA, 25-800 nM protein; cooperative homodimer; EMSA buffer composition not given; 1 h at RT; gels in 1x TG, 200 V, 4 C; probes annealed in 20 mM Tris-HCl pH 8.0, 50 mM MgCl2, 50 mM KCl; protein stock 10 mM HEPES pH 7.0, 100 mM NaCl, 10% glycerol, 0.5 mM TCEP; settings: protein: recombinant; Methods: TEV-cleaved tag; label: 5' Cy5 on forward strand; blunt
[13] = molecular target: T2, Oct4 POUHD; assay: EMSA; 50 nM DNA; homodimer, minor effect of methylation; EMSA buffer composition not given; 1 h at RT; gels in 1x TG, 200 V, 4 C; probes annealed in 20 mM Tris-HCl pH 8.0, 50 mM MgCl2, 50 mM KCl; protein stock 10 mM HEPES pH 7.0, 100 mM NaCl, 10% glycerol, 0.5 mM TCEP; settings: protein: recombinant; tags: tag cleaved by TEV (leaves G); chain copies: 2; label: 5' Cy5 on forward strand; blunt

B1: MORE (dsDNA)
DNA 1: TCCTCATGCATATGCATGAGGA
DNA 2: TCCTCATGCATATGCATGAGGA
B1: binds [1].

B2: Octamer (dsDNA)
DNA 1: GGCGGCGGATGCAAATCGGCGGCGG
DNA 2: CCGCCGCCGATTTGCATCCGCCGCC
B2: binds [2]; binds [3]; binds [4]. B2: no binding [5]; binds [6].

B3: CpGpal 5hmC (dsDNA)
DNA 1: GCCGCCTTATGCGCATAAGCCGCCGC
DNA 2: GCGGCGGCTTATGCGCATAAGGCGGC
modifications: 5hmC at the central CpG; strands carrying the mark not given
B3: binds [7].

B4: CpGpal fully methylated (dsDNA)
DNA 1: GCCGCCTTATGCGCATAAGCCGCCGC
DNA 2: GCGGCGGCTTATGCGCATAAGGCGGC
modifications: 5mC at the central CpG (ATG5mCGCAT), both strands
B4: binds [8]; binds [9]; binds ([10]; label: 5' Cy5 or FAM on forward strand).

B5: MORE (crystal) (dsDNA)
DNA 1: TCCTCATGCATATGCATGAGGA
DNA 2: TCCTCATGCATATGCATGAGGA
B5: binds [11].

B6: CpGpal unmethylated (dsDNA)
DNA 1: GCCGCCTTATGCGCATAAGCCGCCGC
DNA 2: GCGGCGGCTTATGCGCATAAGGCGGC
B6: binds [12]; binds [13]; binds ([10]; label: 5' Cy5 on forward strand).
